Measurements as given in US7193044.
Non-standard residues stand in square brackets, D forms with d. No end group written: not given here. pS = N[C@@H](COP(=O)(O)O)C(=O)O

Biological target: Recombinant Bcl-XL tagged with the glutathione S-transferase (GST) moiety [GST: P08515]
Assay: competition ELISA: peptide against immobilised BAK BH3 peptide for GST-Bcl-XL

Recombinant Bcl-XL tagged with the glutathione S-transferase (GST) moiety [GST: P08515], sequence (Q07817 whole entry): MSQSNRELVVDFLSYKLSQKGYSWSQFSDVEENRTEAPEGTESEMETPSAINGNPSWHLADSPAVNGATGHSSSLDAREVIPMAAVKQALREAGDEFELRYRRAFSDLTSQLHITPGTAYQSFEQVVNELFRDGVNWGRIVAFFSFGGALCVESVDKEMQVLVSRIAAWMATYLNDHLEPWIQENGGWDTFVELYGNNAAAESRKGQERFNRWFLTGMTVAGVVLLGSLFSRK

fold reduction of affinity against the unphosphorylated BAD BH3 peptide: > 100 fold
Binder: AAQRYGRELRRM[pS]DEFEGSFKGLPRP [Synthetic BAD BH3 peptide (residues 143-168) phosphorylated on Ser155]
